Laboratory results taken from patent publication US20130203655A1, “METHODS FOR PREVENTING OR TREATING VIRAL INFECTION” (priority 2010, published 2013).

Key:
DENV1 H244A prM-E VLP = settings: 20 mM NH4Cl, total 36 h, vs untreated cells
Procedure: (§1) Expression of prM-E and VLP production. WT and E H244A mutant DENV1 prM-E sequences were PCR-amplified from the pGDENV1 3.3 subclones described above, and cloned into pcDNA4/TO (Invitrogen, Life Technologies, Carlsbad, Calif.). These constructs were transfected into T-REx™-293 cells (Invitrogen, Life Technologies, Carlsbad, Calif.) using Lipofectamine™ 2000 (Invitrogen, Life Technologies, Carlsbad, Calif.) and selected in T-REx HEK medium containing 125 μg/ml Zeocin, all as previous described.
(§2) For VLP secretion studies, 2-3×10^6 cells were seeded in 10 cm plates, cultured for 24 h, and then induced by culture for 36 h in 1.5 μg/ml tetracycline in DME medium with 10% FCS at 37° C. The culture media were centrifuged at 10,000×g for 30 min to remove cell debris. VLPs were then pelleted through a 0.5 ml sucrose cushion by centrifugation at 54,000 rpm for 2 h at 4° C. using a TLS55 rotor. To test the effect of neutralizing the pH of acidic cellular compartments, cells were seeded and induced as above. After 2 h of induction the media were changed to DME medium containing 20 mM HEPES pH 8.0, 2% FCS, and 1.5 μg/ml tetracycline plus 20 mM NH4Cl as indicated, and the incubation continued for a total of 36 h. E proteins in the cell lysates were immunoprecipitated using mAb 4G2.

DENV1 WT prM-E VLP = settings: 20 mM NH4Cl-treated vs untreated cells
Procedure: as §1, §2

[1] = molecular target: DENV2 E DI/II protein (monomeric, E residues 1-291, STST tag), wild type (Dengue virus 2 New Guinea C (NGC) strain); assay: cell-based or functional assay
[2] = molecular target: DENV2 E DI/II H244A protein (Dengue virus 2 New Guinea C (NGC) strain); assay: cell-based or functional assay
[3] = molecular target: DENV2 E′ protein (dimeric E ectodomain, E residues 1-395, ST tag) (Dengue virus 2 New Guinea C (NGC) strain); assay: cell-based or functional assay

In the case of Cl.N [NH4Cl], the “increase in production of VLP containing H244A mutant E protein” value (DENV1 H244A prM-E VLP) is reported as 4-7 fold and the “WT VLP production” value (DENV1 WT prM-E VLP) is reported as “similar”.
Compound “DENV2 NGC DIII protein (LDIIIH1CS, E residues 289-430)” has a DI/II co-floatation with liposomes at low pH in the presence of DIII (none with BSA in place of DIII) [1] of 25%.
“recombinant DENV2 pr peptide (prM residues 1-86 with N-terminal GS and C-terminal tandem Strep tag)” showed an efficiency of floatation of H244A DI/II with liposomes, in the absence of pr [2] of 43%, an efficiency of floatation of H244A DI/II with liposomes, in the presence of pr [2] of 47% and an E′ co-floatation with liposomes at pH 5.75, pr:E′ molar ratio 12:1 (about 70% with a control protein) [3] of 2%. It also gave an E′ co-floatation with liposomes, pr:E′ molar ratio 3:1 [3] of 22%, an E′ co-floatation with liposomes, pr:E′ molar ratio 6:1 [3] of 8% and an E′ co-floatation with liposomes, pr:E′ molar ratio 24:1 [3] of 0.4%.
